This is an account of results in US20180344832A1.

The target of the experiment is PDL1 on the surface of TC-1 cells (murine (TC-1 murine tumor cell line)) (UniProt Q9EP73). Kind of experiment: flow cytometry on TC-1 cells, isotype background control.
Chain of UniProt Q9EP73 (Q9EP73 19-290): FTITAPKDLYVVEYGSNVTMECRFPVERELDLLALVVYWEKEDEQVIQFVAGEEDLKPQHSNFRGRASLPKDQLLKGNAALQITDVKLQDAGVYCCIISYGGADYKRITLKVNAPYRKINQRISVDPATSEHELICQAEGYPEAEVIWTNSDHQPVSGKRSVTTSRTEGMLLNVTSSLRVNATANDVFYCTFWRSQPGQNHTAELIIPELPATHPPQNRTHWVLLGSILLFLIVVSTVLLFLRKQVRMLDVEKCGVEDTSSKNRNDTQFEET

Turning to PE-conjugated isotype control antibody, the median fluorescent intensity (MFI) worked out at 184 MFI.
